The target of the experiment is HLA-B*08:01 (Homo sapiens, UniProt P01889). Nature of the experiment: MHC binding assay (UV-ligand exchange, beta2m ELISA). As to conditions: MHC class I binding score; binding to HLA-B*08:01 ranged by peptide exchange yield (UV-ligand exchange, β2m ELISA). The source says: Candidate peptides for T cell based therapies according to the present invention were further tested for their MHC binding capacity (affinity). The individual peptide-MHC complexes were produced by UV-ligand exchange, where a UV-sensitive peptide is cleaved upon UV-irradiation and exchanged with the peptide of interest as analyzed. Only peptide candidates that can effectively bind and stabilize the peptide-receptive MHC molecules prevent dissociation of the MHC complexes. To determine the yield of the exchange reaction, an ELISA was performed based on the detection of the light chain (β2m) of stabilized MHC complexes. The assay was performed as generally described in Rodenko et al. (Rodenko et al., 2006).
96 well MAXISorp plates (NUNC) were coated over night with 2 ug/ml streptavidin in PBS at room temperature, washed 4× and blocked for 1 h at 37° C. in 2% BSA containing blocking buffer. Refolded HLA-A*02:01/MLA-001 monomers served as standards, covering the range of 15-500 ng/ml. Peptide-MHC monomers of the UV-exchange reaction were diluted 100-fold in blocking buffer. Samples were incubated for 1 h at 37° C., washed four times, incubated with 2 ug/ml HRP conjugated anti-β2m for 1 h at 37° C., washed again and detected with TMB solution that is stopped with […]. Absorption was measured at 450 nm. Candidate peptides that show a high exchange yield (preferably higher than 50%, most preferred higher than 75%) are generally preferred for a generation and production of antibodies or fragments thereof, and/or T cell receptors or fragments thereof, as they show sufficient avidity to the MHC molecules and prevent dissociation of the MHC complexes.
As to “186 (DLISPRQPRL; listed as Homo sapiens) [compound 186]”, the Peptide exchange result is given as “++ (20% = ++)”. On to “187 (VPYNSVLF; listed as Homo sapiens) [compound 187]”, for which the Peptide exchange entry is “++ (20% = ++)”. To “188 (EIMEKTTL; listed as Homo sapiens) [compound 188]” belongs “++ (20% = ++)”; to “189 (APDNVLLTL; listed as Homo sapiens) [compound 189]”, “++ (20% = ++)”; to “190 (ELLNRIYF; listed as Homo sapiens) [compound 190]”, “++ (20% = ++)”.

Regarding “191 (RPLKPGEVL; listed as Homo sapiens) [compound 191]”, the Peptide exchange result is on record as “++ (20% = ++)”.

With “192 (EEKHFTTL; listed as Homo sapiens) [compound 192]”, the Peptide exchange result was “++ (20% = ++)”.

Turning to “193 (LGGLRLTAL; listed as Homo sapiens) [compound 193]”, the Peptide exchange result is recorded as “++ (20% = ++)”.

For “194 (RAIEHVLQV; listed as Homo sapiens) [compound 194]”, the Peptide exchange entry was “+++ (50% = +++)”. In the case of “195 (EGNQKSVI; listed as Homo sapiens) [compound 195]”, the Peptide exchange result was “++ (20% = ++)”.

In the case of “196 (LDLRQKVL; listed as Homo sapiens) [compound 196]”, the Peptide exchange result is “++ (20% = ++)”. As to “197 (YKAYPSQL; listed as Homo sapiens) [compound 197]”, the Peptide exchange result is on record as “++ (20% = ++)”. To “198 (FPLTSIIAI; listed as Homo sapiens) [compound 198]” belongs “+++ (50% = +++)”. The value for “199 (IPFIHLPEI; listed as Homo sapiens) [compound 199]” was “++ (20% = ++)”; that for “200 (VAAARAVPV; listed as Homo sapiens) [compound 200]” was “++ (20% = ++)”; that for “201 (TASAMQHVL; listed as Homo sapiens) [compound 201]” was “+++ (50% = +++)”.

Regarding “202 (RIPEKASFL; listed as Homo sapiens) [compound 202]”, the Peptide exchange entry is “++ (20% = ++)”. To “203 (DVYTQVSAF; listed as Homo sapiens) [compound 203]” belongs “++ (20% = ++)”. As to “204 (MSPLLRSI; listed as Homo sapiens) [compound 204]”, the Peptide exchange entry is “++ (20% = ++)”. The value for “205 (YMQYGFLSM; listed as Homo sapiens) [compound 205]” was “++ (20% = ++)”. Take “206 (MEFPNKFNTL; listed as Homo sapiens) [compound 206]”: the Peptide exchange entry is “++ (20% = ++)”. Regarding “207 (LRKRKSPE; listed as Homo sapiens) [compound 207]”, the Peptide exchange entry is on record as “++ (20% = ++)”. “208 (LPPPQPLSL; listed as Homo sapiens) [compound 208]”: the Peptide exchange entry was “++ (20% = ++)”. Consider “209 (SRFGKFVQL; listed as Homo sapiens) [compound 209]”, for which the Peptide exchange entry is reported as “++ (20% = ++)”. To “210 (QPNTHQLL; listed as Homo sapiens) [compound 210]” belongs “++ (20% = ++)”; to “211 (DVISKGVSL; listed as Homo sapiens) [compound 211]”, “++ (20% = ++)”. Consider “212 (EEYKFPSL; listed as Homo sapiens) [compound 212]”, for which the Peptide exchange result is listed as “++ (20% = ++)”. To “213 (FPSLFINQF; listed as Homo sapiens) [compound 213]” belongs “++ (20% = ++)”; to “214 (DAPRHRLL; listed as Homo sapiens) [compound 214]”, “++ (20% = ++)”.

For the substance “215 (NPLIEIISI; listed as Homo sapiens) [compound 215]”, the Peptide exchange result was “++ (20% = ++)”. To “216 (EARPPSPAV; listed as Homo sapiens) [compound 216]” belongs “++ (20% = ++)”. Regarding “217 (ETIKGHSVRL; listed as Homo sapiens) [compound 217]”, the Peptide exchange entry is listed as “++ (20% = ++)”. “218 (DNHPRLVTL; listed as Homo sapiens) [compound 218]”: the Peptide exchange entry was “+++ (50% = +++)”. The value for “219 (VRNPKILIL; listed as Homo sapiens) [compound 219]” was “++ (20% = ++)”; that for “220 (LAVRHLSL; listed as Homo sapiens) [compound 220]” was “++ (20% = ++)”. To “221 (SLKEELLSL; listed as Homo sapiens) [compound 221]” belongs “+++ (50% = +++)”; to “222 (AQKAELIAL; listed as Homo sapiens) [compound 222]”, “++ (20% = ++)”.

Take “223 (DVSARKLRV; listed as Homo sapiens) [compound 223]”: the Peptide exchange entry is reported as “++ (20% = ++)”.

In the case of “224 (LPYPPQKVV; listed as Homo sapiens) [compound 224]”, the Peptide exchange result is “++ (20% = ++)”. For the substance “225 (MPKRAHWGA; listed as Homo sapiens) [compound 225]”, the Peptide exchange entry is given as “+++ (50% = +++)”. On to “226 (DIYEVAVSL; listed as Homo sapiens) [compound 226]”, for which the Peptide exchange result was “+++ (50% = +++)”. The value for “227 (SRFPGMSVL; listed as Homo sapiens) [compound 227]” was “++ (20% = ++)”; that for “228 (TLRAYVLAL; listed as Homo sapiens) [compound 228]” was “+++ (50% = +++)”; that for “229 (DTHTNTYYL; listed as Homo sapiens) [compound 229]” was “++ (20% = ++)”.

For the substance “230 (DVYFHHVL; listed as Homo sapiens) [compound 230]”, the Peptide exchange entry is “++ (20% = ++)”.

As to “231 (GEKLLRPSL; listed as Homo sapiens) [compound 231]”, the Peptide exchange result was “++ (20% = ++)”. The value for “232 (KLYIHRVTL; listed as Homo sapiens) [compound 232]” was “++ (20% = ++)”; that for “233 (DVKLVFVM; listed as Homo sapiens) [compound 233]” was “++ (20% = ++)”; that for “234 (VFRVGISF; listed as Homo sapiens) [compound 234]” was “++ (20% = ++)”. The value for “235 (SPNSLVTIL; listed as Homo sapiens) [compound 235]” was “+++ (50% = +++)”; that for “236 (STLKKSLEI; listed as Homo sapiens) [compound 236]” was “++ (20% = ++)”; that for “237 (LPLDSRYVTL; listed as Homo sapiens) [compound 237]” was “+++ (50% = +++)”. The value for “238 (IPLAIARL; listed as Homo sapiens) [compound 238]” was “+++ (50% = +++)”; that for “239 (SEPVMRVTL; listed as Homo sapiens) [compound 239]” was “++ (20% = ++)”; that for “240 (KVIDRKVEL; listed as Homo sapiens) [compound 240]” was “++ (20% = ++)”. Regarding “241 (NAYEAPSI; listed as Homo sapiens) [compound 241]”, the Peptide exchange entry is “++ (20% = ++)”. On to “242 (KPQSLQLVL; listed as Homo sapiens) [compound 242]”, for which the Peptide exchange entry is reported as “++ (20% = ++)”. To “243 (EGVPPGTVL; listed as Homo sapiens) [compound 243]” belongs “+++ (50% = +++)”; to “244 (HALPPYITVL; listed as Homo sapiens) [compound 244]”, “++ (20% = ++)”; to “245 (GPRGPSSGHPL; listed as Homo sapiens) [compound 245]”, “++ (20% = ++)”.

In the case of “246 (RLLQKSKEL; listed as Homo sapiens) [compound 246]”, the Peptide exchange result is given as “++ (20% = ++)”. To “247 (TPEPSVHAL; listed as Homo sapiens) [compound 247]” belongs “++ (20% = ++)”. To “248 (SEVNKHETAL; listed as Homo sapiens) [compound 248]” belongs “++ (20% = ++)”; to “249 (QQIDRVVEV; listed as Homo sapiens) [compound 249]”, “++ (20% = ++)”; to “250 (AARAPPQAL; listed as Homo sapiens) [compound 250]”, “++ (20% = ++)”. For the substance “251 (DAAAFFKSV; listed as Homo sapiens) [compound 251]”, the Peptide exchange result is on record as “++ (20% = ++)”.

These data come from patent publication US11433099B2, “Immunotherapy with B*08 restricted peptides and combination of peptides against cancers and related methods” (Immatics Biotechnologies GmbH, priority 2018, dated 2022).
